Results taken from patent publication US20210338656A1, “IMMUNOSTIMULATORY AGENTS IN COMBINATION WITH ANGIOGENESIS INHIBITORS” (Alkermes Pharma Ireland Limited, priority 2020, published 2021).

Legend:
[1] = test system: MC38 murine colon carcinoma cells; assay: Anti-tumor efficacy in subcutaneous MC38 syngeneic tumor model (tumor growth, survival); format: in vivo, mouse; settings: for tumor growth inhibition (TGI): Day 11
Method: The characteristics of each animal study group, the administration of the test articles and timing, the collection of samples and the overall study design are as shown in Tables 1 and 2:
(68-72° F.) and 40-60% humidity.
Additional aliquots were stored at 4° C. for use within 72 hours of formulation. Just prior to administration, dosing solutions were remixed with gentle inversion.
Group mean tumor volumes were plotted versus time. When an animal exited the study because of tumor size or TR death, its final recorded tumor volume was included with the data used to calculate the mean volume. Mean tumor volumes were calculated for a group until 50% of the animals had exited the study. Kaplan-Meier plots show the percentage of animals in each group remaining in the study versus time.

[2] = test system: gene expression in MC38 tumors; assay: RNA-Seq gene expression in MC38 tumors, Day 10; format: in vivo, mouse
Method: On Day 10 spleens and tumors were collected and weighed from all animals in Groups 7 through 12 and weighed prior to processing. Tissues from four animals in each group were processed to single cell suspensions for flow cytometry analysis at CRL-NC (described below). Tissues from the remaining six animals in each group were preserved in RNAlater, stored at −80° C.
Tumors and spleens were dissected on the appropriate day of the study and were weighed and immediately placed in RNAlater Stabilizing Reagent to preserve the tissue and stored overnight at 4 deg C. The following day, the samples were removed from RNA later and snap frozen and placed at −80 deg C.
Unless otherwise indicated, everything was done on ice and the materials were prechilled on ice. The tissues were homogenized in TRIzol in Precellys tissue grinding tubes. After homogenization, the TRIzol solutions were transferred to 1.5 ml tubes and spun for 5 min at 12,000×g to eliminate the insoluble material. The TRIzol solutions were then transferred to Phasemaker tubes. Chloroform was added, the tubes were capped, and shaken vigorously for 15 seconds. The samples were then incubated at room temperature for 2-15 minutes and centrifuged at 12,000×g for 5 minutes. The upper, aqueous phase was then transferred to a new tube and an equal volume of 70% ethanol was added and it was vortexed. The liquid was then transferred to Qiagen RNeasy columns and centrifuged at 8000×g. DNAse was added to each tube to eliminate any residual DNA. The columns were then washed and eluted as directed by the kit. The RNA concentrations were determined using a Qubit.
Libraries were prepared for sequencing by using the Mouse Transcriptome Ion AmpliSeq Library Preparation on the Ion Chef System as directed by the manufacturer. Eight samples of purified RNA and 8 unique IonCode molecular barcodes were added to a 96 well plate and were prepared at a time. After the libraries were prepared, they were templated and loaded onto an Ion Torrent 540 chip using the Ion 540 Chef Kit from ThermoFisher. The 540 chips were then loaded into a Gene Studio S5 sequencer and sequenced.
Raw sequencing data was processed by Torrent Suite (v5.8.0) software that came with the Gene Studio sequencer (ThermoFisher). For each sample, this program summarized gene expression in a CHP file. The CHP files were then loaded into the Transcriptome Analysis Console (TAC) program (ThermoFisher).

[3] = T cell signaling gene, MC38 tumors Day 10 RNA-Seq, lucitanib 10 mg/kg po, SEQ ID NO. 2 3 mg/kg sc
[4] = Type I/II interferon pathway gene, MC38 tumors Day 10 RNA-Seq, lucitanib 10 mg/kg po, SEQ ID NO. 2 3 mg/kg sc
[5] = antigen presentation gene, MC38 tumors Day 10 RNA-Seq, lucitanib 10 mg/kg po, SEQ ID NO. 2 3 mg/kg sc

B1: SEQ ID NO: 2: mouse ortholog construct (murine surrogate) of the circularly permuted IL-2/IL-2Rα fusion protein of SEQ ID NO: 1 (protein)
chain: SKSFQLEDAENFISNIRVTVVKLKGSDNTFECQFDDESATVVDFLRRWIAFCQSIISTSPQGGSSSTQQQQQHLEQLLMDLQELLSRMENYRNLKLPRMLTFKFYLPKQATELKDLQCLEDELGPLRHVLDLTQGSGGGSELCLYDPPEVPNATFKALSYKNGTILNCECKRGFRRLKELVYMRCLGNSWSSNCQCTSNSHDKSRKQVTAQLEHQKEQQTTTDMQKPTQSMHQENLTGHCREPPPWKHEDSKRIYHFVEGQSVHYECIPGYKALQRGPAISICKMKCGKTGWTQPQLTCVDGSHHHHHH
modifications: Mouse cpIL-2IL-2R-alpha
tumor growth inhibition (TGI) ([1]; SEQ ID NO: 2 monotherapy 1.5 mg/kg s.c. once every 3 days): 25%
tumor growth inhibition (TGI) ([1]; SEQ ID NO: 2 monotherapy 3 mg/kg s.c. once every 3 days): 51%
median survival time ([1]; SEQ ID NO: 2 monotherapy 1.5 mg/kg s.c.): 18 days
median survival time ([1]; SEQ ID NO: 2 monotherapy 3 mg/kg s.c.): 22 days
complete response (number) ([1]; SEQ ID NO: 2 monotherapy arms): 1
durable complete tumor regressions ([1]; either dose (1.5 or 3 mg/kg) of SEQ ID NO: 2 monotherapy, groups pooled): 1/20
tumor growth outcome (summary in words) ([1]; treatment arm summaries): modest tumor growth inhibition
Cd3e mean expression value relative to vehicle group [2, 3]: 3.81
Cd4 mean expression value relative to vehicle group [2, 3]: 1.46
Cd8a mean expression value relative to vehicle group [2, 3]: 4.64
Cd8b1 mean expression value relative to vehicle group [2, 3]: 8.03
Cd28 mean expression value relative to vehicle group [2, 3]: 2.86
Cd247 mean expression value relative to vehicle group [2, 3]: 3.95
Cd3d mean expression value relative to vehicle group [2, 3]: 5.96
Ctla4 mean expression value relative to vehicle group [2, 3]: 0.60
H2-Aa mean expression value relative to vehicle group [2, 3]: 1.27
H2-Ab1 mean expression value relative to vehicle group [2, 3]: 2.25
H2-Eb1 mean expression value relative to vehicle group [2, 3]: 1.29
Icos mean expression value relative to vehicle group [2, 3]: 1.69
Ifng mean expression value relative to vehicle group [2, 3]: 2.06
Il2 mean expression value relative to vehicle group [2, 3]: 0.31
Lck mean expression value relative to vehicle group [2, 3]: 4.42
Lcp2 mean expression value relative to vehicle group [2, 3]: 0.23
Nfatc2 mean expression value relative to vehicle group [2, 3]: 0.67
Pdcd1 mean expression value relative to vehicle group [2, 3]: 2.42
Ptpn22 mean expression value relative to vehicle group [2, 3]: 2.19
Ptprc mean expression value relative to vehicle group [2, 3]: 2.32
Zap70 mean expression value relative to vehicle group [2, 3]: 2.63
B2m mean expression value relative to vehicle group [2, 4]: 0.03
Bst2 mean expression value relative to vehicle group [2, 4]: 0.08
Cd44 mean expression value relative to vehicle group [2, 4]: −0.19
Ciita mean expression value relative to vehicle group [2, 4]: 1.36
Fcgr1 mean expression value relative to vehicle group [2, 4]: 1.12
Gm10499 mean expression value relative to vehicle group [2, 4]: −0.02
H2-Aa mean expression value relative to vehicle group [2, 4]: 1.27
H2-Ab1 mean expression value relative to vehicle group [2, 4]: 2.25
H2-Eb1 mean expression value relative to vehicle group [2, 4]: 1.29
H2-K1 mean expression value relative to vehicle group [2, 4]: 0.04
H2-Q10 mean expression value relative to vehicle group [2, 4]: −0.28
Icam1 mean expression value relative to vehicle group [2, 4]: 0.88
Ifi35 mean expression value relative to vehicle group [2, 4]: 0.38
Ifit2 mean expression value relative to vehicle group [2, 4]: 0.54
Ifitm1 mean expression value relative to vehicle group [2, 4]: −0.13
Ifna2 mean expression value relative to vehicle group [2, 4]: 0
Ifnar1 mean expression value relative to vehicle group [2, 4]: 0.35
Ifnar2 mean expression value relative to vehicle group [2, 4]: 0.2
Ifnb1 mean expression value relative to vehicle group [2, 4]: −0.16
Ifng mean expression value relative to vehicle group [2, 4]: 2.06
Ifngr1 mean expression value relative to vehicle group [2, 4]: 0.23
Irf1 mean expression value relative to vehicle group [2, 4]: −0.01
Irf4 mean expression value relative to vehicle group [2, 4]: 0.92
Irf5 mean expression value relative to vehicle group [2, 4]: 0.43
Irf8 mean expression value relative to vehicle group [2, 4]: 1.46
Mx1 mean expression value relative to vehicle group [2, 4]: 0.6
Ncam1 mean expression value relative to vehicle group [2, 4]: −0.2
Pml mean expression value relative to vehicle group [2, 4]: 0.62
Ptpn6 mean expression value relative to vehicle group [2, 4]: 0.36
Socs3 mean expression value relative to vehicle group [2, 4]: 0.09
Tyk2 mean expression value relative to vehicle group [2, 4]: 0.36
Vcam1 mean expression value relative to vehicle group [2, 4]: 0.13
B2m mean expression value relative to vehicle group [2, 5]: 0.03
Btk mean expression value relative to vehicle group [2, 5]: 0.06
Cd14 mean expression value relative to vehicle group [2, 5]: 0.51
Cd36 mean expression value relative to vehicle group [2, 5]: −0.08
Cd74 mean expression value relative to vehicle group [2, 5]: 1.14
Ctsc mean expression value relative to vehicle group [2, 5]: 0.82
Ctss mean expression value relative to vehicle group [2, 5]: 1.2
Cybb mean expression value relative to vehicle group [2, 5]: 0.8
Fcgr1 mean expression value relative to vehicle group [2, 5]: 1.12
H2-Aa mean expression value relative to vehicle group [2, 5]: 1.27
H2-Ab1 mean expression value relative to vehicle group [2, 5]: 2.25
H2-DMa mean expression value relative to vehicle group [2, 5]: 1.16
H2-DMb2 mean expression value relative to vehicle group [2, 5]: 0.65
H2-Ea-ps mean expression value relative to vehicle group [2, 5]: 0
H2-Eb1 mean expression value relative to vehicle group [2, 5]: 1.29
H2-K1 mean expression value relative to vehicle group [2, 5]: 0.04
H2-Ob mean expression value relative to vehicle group [2, 5]: 1.61
H2-Q10 mean expression value relative to vehicle group [2, 5]: −0.28
Ly96 mean expression value relative to vehicle group [2, 5]: 0.27
Ncf4 mean expression value relative to vehicle group [2, 5]: 0.86
Psmb9 mean expression value relative to vehicle group [2, 5]: 0.03
Tap1 mean expression value relative to vehicle group [2, 5]: 0.12
Tlr1 mean expression value relative to vehicle group [2, 5]: 0.62
Tlr2 mean expression value relative to vehicle group [2, 5]: 0.36
Tlr4 mean expression value relative to vehicle group [2, 5]: 0.21
expression of genes associated with cytotoxic immune cell function and T cell activation ([2]; tumors): Increased expression
